# Changes are numbered by the printed parent chain.
# B1: 33D05 (TCR, V domains shown)
# Valpha: AQSVTQLDSHVSVSEGTPVLLRCNYSSSYSPSLFWYVQHPNKGLQLLLKYTSAATLVKGINGFEAEFKKSETSFHLTKPSAHMSDAAEYFCVVSAIGYSSASKIIFGSGTRLSIRP
# Vbeta: DTGVSQNPRHKITKRGQNVTFRCDPISEHNRLYWYRQTLGQGPEFLTYFQNEAQLEKSRLLSDRFSAERPKGSFSTLEIQRTEQGDSAMYLCASSLVAGGPAETQYFGPGTRLLVL
# B2: 09E01 (TCR, V domains shown)
# Valpha: GQQVMQIPQYQHVQEGEDFTTYCNSSTTLSNIQWYKQRPGGHPVFLIQLVKSGEVKKQKRLTFQFGEAKKNSSLHITATQTTDVGTYFCAGPGNQFYFGTGTSLTVIP
# Vbeta: NAGVTQTPKFQVLKTGQSMTLQCAQDMNHEYMSWYRQDPGMGLRLIHYSVGAGITDQGEVPNGYNVSRSTTEDFPLRLLSAAPSQTSVYFCASSSWDRDQPQHFGDGTRLSIL
# B3: 09D01 (TCR, V domains shown)
# Valpha: RKEVEQDPGPFNVPEGATVAFNCTYSNSASQSFFWYRQDCRKEPKLLMSVYSSGNEDGRFTAQLNRASQYISLLIRDSKLSDSATYLCVVNMRDSSYKLIFGSGTRLLVRP
# Vbeta: GAVVSQHPSRVICKSGTSVKIECRSLDFQATTMFWYRQFPKKSLMLMATSNEGSKATYEQGVEKDKFLINHASLTLSTLTVTSAHPEDSSFYICSAHERITDTQYFGPGTRLTVL
# B4: 09H05 (TCR, V domains shown)
# Valpha: B3 Valpha with R93K
# Vbeta: GAVVSQHPSRVICKSGTSVKIECRSLDFQATTMFWYRQFPKKSLMLMATSNEGSKATYEQGVEKDKFLINHASLTLSTLTVTSAHPEDSSFYICSALEGTSGKETQYFGPGTRLLVL
# B5: 10F04 (TCR, V domains shown)
# Valpha: QKEVEQDPGPLSVPEGAIVSLNCTYSNSAFQYFMWYRQYSRKGPELLMYTYSSGNKEDGRFTAQVDKSSKYISLFIRDSQPSDSATYLCAMSPRSGYALNFGKGTSLLVTP
# Vbeta: DGGITQSPKYLFRKEGQNVTLSCEQNLNHDAMYWYRQDPGQGLRLIYYSQIVNDFQKGDIAEGYSVSREKKESFPLTVTSAQKNPTAFYLCASSMDAALGEKLFFGSGTQLSVL
# Key:
# Experiment in all cases: cytokine release
# [1] = target: T1, HPV18-E7 peptide on HLA-DPA1*02:02 / HLA-DPB1*05:01 (human)
# T1 peptide: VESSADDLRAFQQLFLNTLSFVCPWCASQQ
# [2] = target: T2, HPV18-E7 peptide on HLA-DPA1*01:03 / HLA-DPB1*02:01 (human)
# T2 peptide: T1 peptide
# [3] = target: T3, RGS5 peptide on HLA-DRA / HLA-DRB4*01:03 (human)
# T3 peptide: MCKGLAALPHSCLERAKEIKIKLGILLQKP
# [4] = target: T4, RGS5 peptide on HLA-DRA / HLA-DRB1*09:01 (human)
# T4 peptide: T3 peptide
# [5] = target: T5, RGS5 peptide on HLA-DRA / HLA-DRB1*09:01 (human)
# T5 peptide: AKEIKIKLGILLQKP
# [6] = target: T6, RGS5 peptide on HLA-DRA / HLA-DRB4*01:03 (human)
# T6 peptide: AKEIKIKLGILLQKP
# [7] = target: T7, HPV18-E7 peptide on HLA-DRA / HLA-DRB4*01:03 (human)
# T7 peptide: RAFQQLFLNTLSFVCPWCA
# [8] = target: T8, HPV18-E7 peptide on HLA-DRA / HLA-DRB1*09:01 (human)
# T8 peptide: RAFQQLFLNTLSFVCPWCA
binder,measurement,setting,value
B1,binding result,[1],recognises
same,binding result,[2],recognises
B2,binding result,[3],recognises
same,binding result,[4],recognises
B3,binding result,[5],recognises
same,binding result,[6],recognises
B4,binding result,[5],recognises
same,binding result,[6],recognises
B5,binding result,[7],recognises
same,binding result,[8],recognises

# From US20210198341A1 (published 2021)
